In assay [1] the target is T1, streptavidin (UniProt P22629 37-163, limits assumed).
T1 construct: Used as phycoerythrin conjugate or on coated beads; also called SA; streptavidin-phycoerythrin
The assay is described as follows: whole-cell dissociation by flow cytometry with biotin as competitor. The procedure:
(§1) To enable comparison of the phage and bacterial display peptides, a bacterial display clone was constructed with the insertion, […] (SEQ ID NO:65), and the KD and kdiss were measured in whole cell assays.
(§2) To obtain equilibrium binding curves, cells were labeled over a range of concentrations, e.g., about 0.1 to about 200 nM, of fluorescently conjugated target proteins (streptavidin-phycoerythrin or CRP-Alexa Fluor® 488) and analyzed by flow cytometry, as above. The corresponding mean fluorescence versus concentration data were fit to a monovalent binding isotherm to obtain the apparent KD. Dissociation rates of streptavidin-binding clones were measured in the presence of about 1 to about 2 μM biotin. Cells were labeled with 50 nM streptavidin-phycoerythrin for 30 minutes at room temperature. The cells were then pelleted, resuspended in PBS with biotin, and immediately analyzed by flow cytometry. Fluorescence data were collected continuously for about five minutes. The dissociation rate constants were then determined as described previously. See Daugherty, P. S., et al. (1998) Protein Eng. 11(9):825-832, which is herein incorporated by reference.

In assay [2] the target is T1, streptavidin. The assay is described as follows: apparent whole-cell KD, flow cytometry with streptavidin-phycoerythrin. The procedure:
as §1, §2
A general note: Flow cytometry measures light scatter and fluorescence of single cells or particles in a stream.

The target of assay [3] is T1, streptavidin. The assay is described as follows: selection from the E. coli OmpA display library.
The target of assay [4] is T2, human C-reactive protein (human, UniProt P02741 19-224).
T2 construct: Biotinylated or labelled with Alexa Fluor 488; also called CRP; C-RP
T2 sequence (looked up): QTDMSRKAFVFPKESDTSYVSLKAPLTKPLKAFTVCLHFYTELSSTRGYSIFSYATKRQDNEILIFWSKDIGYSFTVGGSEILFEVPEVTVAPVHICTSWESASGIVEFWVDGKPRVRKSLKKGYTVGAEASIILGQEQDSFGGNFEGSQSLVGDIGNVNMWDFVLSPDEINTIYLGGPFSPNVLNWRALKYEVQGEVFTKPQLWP
Briefly: apparent whole-cell KD, flow cytometry with CRP-Alexa Fluor 488. The procedure: as §2

Assay [5] deals with T2, human C-reactive protein. The assay is described as follows: equilibrium dissociation constant of a selected displayed peptide, whole-cell flow cytometry at various CRP concentrations. The procedure:
The library was first depleted of streptavidin binding peptides by incubation with streptavidin coated microbeads, e.g., from Qiagen, Inc. (Valencia, Calif.). Then the library was incubated with biotinylated human C-reactive protein at 10 nM final concentration, and two rounds of magnetic selection were used to enrich CRP binding peptides. […] Equilibrium binding affinities were measured in the whole cell format, by determining cell fluorescence at various concentrations of target CRP. See e.g. FIG. 17.
as §2, with “11(9):825-832, which is herein incorporated by reference.” left out

The target of assay [6] is T1, streptavidin. Briefly: whole-cell dissociation by flow cytometry, 1-2 uM biotin as competitor. The procedure:
The apparent binding affinities of a subset of the selected peptides were determined using flow cytometric analysis. […] See Daugherty, P. S., et al. (1998) Protein Eng. 11(9):825-832, which is herein incorporated by reference. […] See Daugherty, P. S., et al. (1998) Protein Eng. 11(9):825-832; and Feldhaus, M. J., et al. (2003) Nat. Biotechnol. 21(2): 163-170, which are herein incorporated by reference. […] Apparent dissociation rate constants (kdiss) were determined for streptavidin, using about 1 to about 2 μM biotin as a competitor to prevent re-binding.
as §2

Assay [7] has as its target T1, streptavidin. The assay is described as follows: apparent whole-cell KD, flow cytometry with streptavidin-phycoerythrin. The procedure: as §2
This is another data set of the same source.

The target of assay [8] is T1, streptavidin. Briefly: whole-cell dissociation by flow cytometry (FIG. 10B), SA-7 against SA-1. The procedure:
as §2

Assay [9] deals with T1, streptavidin. Briefly: equilibrium dissociation constant of a selected displayed peptide, whole-cell flow cytometry. The procedure:
as §2

Positions of bridges follow the written chain, without caps; N, C: chain ends. No end group written: not given here.

B1: Clone HPQ (peptide)
peptide: SAECHPQGPPCIEGR
modifications: disulfide 4-11 (inferred)
notes: Insert only; also called cyclic HPQ clone
With B1, the “fold faster dissociation rate (kdiss) against clone SA-1” value in [1] is 20 fold. In addition, the “fold higher apparent KD against clone SA-1” value in [2] was found to be 5 fold.
Take QVKLHPMAPVVPSHW [SEQ ID NO 243]: the binding result in assay [3] was “binds”.

B2: CRP-1 (peptide)
peptide: EWACNDRGFNCQLQR
modifications: not fully specified (bridges); cysteine pairing not given here
notes: Insert only; said to be a cyclic peptide (two cysteines)
B2: the values for the Kd in [4] and in assay [5] were 1 nM and 1.2 nM, respectively.
In turn, ICSYVMYTTCFLRVY (Insert only) [SA-2] returned a koff in [6] of about 0.001 s⁻¹. For the same molecule, the Kd in [7] worked out at 8 nM.
With NEWYCQNVCERMPHS (Insert only) [SA-7], the koff in assay [6] is about 0.01 s⁻¹. The “fold difference of dissociation rate constant against SA-1” value in [8] came out at 4 fold.
In the case of TVLICMNICWTGETQ (Insert only) [SA-3], the results for the off-rate (koff) in [6] and in assay [1] were about 0.001 s⁻¹ and 0.0007 s⁻¹, respectively. Moreover, the Kd in assay [7] and in assay [9] was 4 nM throughout.

The koff is the rate constant with which the complex falls apart. A lower koff goes with slow dissociation.

Source of the values: patent US20190264194A1 (published 2019).
